This data set can be described thus: protease stability score; higher = more stable; yeast display proteolysis, trypsin and chymotrypsin.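 Also: log10 excess protease needed over predicted unfolded state with 0 meaning unfolded.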
“DEEDAKVLKQVLENVESGDSKSAETLLDKDVKFVIGDKVLHGRTQYVDRVRRETKRMRVKRQVQHYEVNNGRVHMTIDIQYDIDGKPLRDQITLTAEFHNGRMQSLEVKMDRDFKRKVDK” showed a protease stability score of 0.313.
Regarding “DEEKIARHVVRTWMENLKTGNFKEIEKMIDKDVEFEIGDKTVTGREEVRKRRKHEKDQADHIEVQVHDVRARGDKVNIDVVMEINNNGRTTTRRFVLVLSIHNGHAKIKMVTQG”, the protease stability score was found to be 1.09.
The value for “DTDAVKNFKEDLHAVRSGDPDRLLKMFDPNAKLQIGDKEVTGMDQYAKEVHNTRQEIRMSYELRDYKVDGDKIEADIRVQKDVNGRPYRDKVKVDIKVNNGRIKKARYQVDEDKEKQLQS” was -0.126.
The value for “EEELVKKAKTFMKQEEDGNPEKLKEYADENVRMHVGNKEVRGMDQYAEDVRRKREEARFSFKSIDAKASGDKITVRATLTFNVNGKPVEIDMTIILKLHNGRLKFLKVRVDPDEERRLES” was 0.595; that for “DERKKDRMRELFEAWKTGDEHTAEKMLDKDAKIDVGDHRVQGREQHSTDVRRRKEEIRLRVDIDSIHIHNGRVSVEYKEENNHNGKPDTKNARVDFNMHNGRVQEQKQSNES” was -0.35; that for “DHQESAHRLHNTLKTIWSENDPDKYSELIDENVHVDVGDKKFRGRDEAKKLAEHIMRRADHIEIRLTSIDVHGNTIRIVVELNFNHDGTSSSVTVVVVLENHNGNFRVKKIRES” was 0.017.
Take “DEDHLRKLKEYVKNYNKGDPDKLDEYLDPNVRINVGDHTVHGMDEHNKQAEERTRNMRIQLRRVDVKARNGQLKATINAEAEVNGRPATLHADITVKMHNGKVKNIHVRMPEDYKREREK”: the protease stability score came to 0.008.
“DQNDRAEEFFKHWQRILTKNDPDEARKQMDKDVNVVYGDKRYHGREEVVKYLRDNMDRVDSIRVKLDDFKVDNGKATFHARFRQTHNGKDEQHNVVIVAQFKNGKLRAQSYHES” came in with a protease stability score of 1.01.
For the sequence “DEHDMAHKFFHDLVEAAKTGDRDKIKRLADPNVKIEYGDKRLHGHKDYANFIQKIVERVDSVNFQLQSVSVTGDKVRMIYTLDVVENGQKRTDRLQIEAQIHNGDIIAKRVVEG”, the protease stability score is 0.873.
Sequence “DEHAKRVLHEWLRAIQTGDPDKAMRLADKDARIRVGDKVISGREQLHKWVETLKKHIKVQIEDFNIEVHGEELELNIVATLNDNGEPQRSRWVVTVIIRNGEMKSLTQRDDS” registered a protease stability score of 0.009.
In the case of “DDQKVRVASELLKAIERGDPDQARELMDENAKMVIGETTFTGRDEAAKWISELKKHMRVQIQSVTFHDHNGQIVVNVTFEANINGDPFTMNLIVRVQVHNGRVQNVHYRLSEEQKRRLEQ”, the protease stability score worked out at 0.969.
The value for “DEEAAKKVKTLVEHGDFQQMARNFDEDARVVIGDRVVHGREQAIEAMRRFDEAVDHQEVKSVTSSGNKVKFNIQAHVDGKTVRMIVVIEMHNGKLKMVRFDATSEDLRRILKRSLG” was 1.27.
For “DEERDERVATKVAEAMATGDPEKVMEQAPPNAEMRIGDKHFTGEEHIKQALLEWKRDADHIQVDHVSVQNGRAHMDMQFTINGRKRRYTLRVEVHNGKAKTVSVREP”, the protease stability score is 0.315.
Take “DEEDVKRAVEIFNTNNEEDLRRLVDKHAKITVGDKDVHGRKTAETLIHKLNSQADRIHLESVHKNGEQVVIKMVADVNGEKLDFQIVFVIKNGRLTSQRNVARNEDVERTLKNLYS”: the protease stability score is -0.119.
Sequence “DENREASTFMEQLQRNLRDGDHEEVVRMIDENARLEVGDKRIEGDHNVAHELMNQARRVDHFKMNITHLEVSNGRVKVVFIAKYEVNGRTEVNVYEQVLEIENGRLSLVSRRRK” came in with a protease stability score of 0.545.
Turning to “DENAVRVVKELWKALNHGNPDRVQQLADKDARVQVGDKDVHGREKMAKLVDTLKKEIRMDIKVHSISASNGRAKIDFKADEENNGKPQTYEATANVTIHNGKVVSMRVNKDQ”, the protease stability score was -0.428.
On to “DDEEKKELADEIAQVIRTGDPKRMVEMVDENATAQVGDQKVHGRENIDKMMQNIRRTADHIRIEHVQVHGEEIRIKAKFHINGHTTTWVFSAEVHNGRIQRASLDRR”, for which the protease stability score stood at 1.
The value for “DEHKVKEAAERFVRMLEHNDPDTLSKLFDPNVTMQVGDKEYQGRETLMRLVKELKKRVDHIEVKQVHASNGRVNVRMTIQFNGKRFEFTMHIVLHDGRVDTLSLDVRNEEEKRRVDS” was 1.31.

Values taken from the NTF2 design screens of Basanta et al. (2020).
